One substance from patent publication US4839466A, “Insulin activity messengers” (The Rockefeller University, priority 1987, dated 1989) can be followed below.

This data set deals with cAMP phosphodiesterase. Kind of data set: Generation of an enzyme modulator from liver plasma membranes, cAMP phosphodiesterase readout. It is filed as biochemical, rat. As for the experimental part:
Purification of the Enzyme Modulator. Bovine liver particulate fraction was prepared as described previously [Saltiel A. R., (1984) "Preparation and Characterization of Putative Insulin Mediators from Liver", METHODS IN DIABETES […], eds. J. Larner, S. Pohl, I:73]. Solutions were incubated in 5 mM ammonium bicarbonate, pH 7.4 with 10 nM insulin or 1 ug/ml PI-PLC as described in the figure legends. Following incubation, solutions were acidified to pH 4.0 and centrifuged at 35,000 x g for 20 minutes. Resulting supernatants were extracted with chloroform/methanol (2:1). The upper aqueous phase was aspirated and methanol was evaporated. Enzyme modulating activities were purified as described in Publication No. 6 listed earlier herein. Briefly, the extract was chromatographed on DEAE-Cellulose and eluted with 0.25M triethylamine (TEA)-formate, pH 3.75. This was followed by chromatography on C-18 reversed phase resin, in the same buffer, followed by Dowex 50W X-4 in 50 mM TEA-formate, pH 3.0. The resulting eluate was lyophilized, resuspended in 50 mM TEA-formate, pH 4.5 and sequentially chromatographed on QAE-Sephadex, SAX HPLC and a P-2 gel filtration column. Only the cyclic inositol phosphate derivative residing in Peak I was examined.
Enzyme Assays. The low Km cAMP PDE was assayed in a rat adipocyte particulate fraction as previously described [Saltiel, A. R., Steigerwalt,R. W., (1986) "Purification of Putative Insulin-Sensitive cAMP Phosphodiesterase or its Catalytic Domain From Rat Adipocytes", DIABETES, 35:698] and as later modified in Publication No. 6. Activity was linear throughout 20 min. and proportional to protein concentration. Only the low Km species of the enzyme was present in this fraction. PDH activity was assayed in liver mitoplasts after preincubation with ATP as previously described [Saltiel et al., (1982) PROC. NATL. ACAD. SCI. U.S.A., 79:3513.]. Adenylate cyclase activity was also assayed in purified adipocyte plasma membranes. For all enzyme assays, variability was less than 5%.
Liver membranes were treated with or without 10 nM insulin or 1 ug/ml PI-PLC for 10 min. at 37° C. Following cetrifugation, the supernatants were extracted and purified up to and including the SAX HPLC step. Purified extracts were added to enzyme assays at a final dilution of 1:10. Enzyme activities were assayed with no additions or after addition of purified extracts from control, insulin or PIPPLC treated membrane. Percent of basal activity is expressed in parentheses. ^1 expressed as pmoles/mg protein-min. ^2 expressed as nmoles/mg protein-min.

As to Insulin: monocomponent bovine insulin, under “extract of liver membranes treated with 10 nM insulin or 1 ug/ml PI-PLC 10 min. 37° C., purified to SAX HPLC, dilution 1:10, no addition 61.7±4.2, control membranes 78.5±5.6”, the “cAMP Phosphodiesterase activity” value is 146±3 pmoles/mg protein-min. In addition, the “stimulation of PDE by the substance generated” value (membranes exposed to 10 nM insulin 10 min.) was 2-3 fold.
